Measurements as given in US20210163923A1.

Target: Heat inactivated human AB serum labelled with Dylight 633 (human)
Test: flow cytometry, IgG displayed on HEK293 cells, anti-Fc PE and Dylight 633 labelled human AB serum

Row | % cells double positive for antibody and human serum binding [%] | Substance
1 | 3.7 | Nivolumab displayed from pINT17-BSD (antibody)
2 | 12.3 | Vesencumab (antibody)
